Measurements: US20020010135A1 (Amgen, published 2002)

Columns and labels:
trkB receptor = assay: cell-based or functional assay
[1] = target: human trkC receptor protein (human, UniProt Q16288 32-839); assay: cell-based or functional assay
Chain of human trkC receptor protein (Q16288 32-839): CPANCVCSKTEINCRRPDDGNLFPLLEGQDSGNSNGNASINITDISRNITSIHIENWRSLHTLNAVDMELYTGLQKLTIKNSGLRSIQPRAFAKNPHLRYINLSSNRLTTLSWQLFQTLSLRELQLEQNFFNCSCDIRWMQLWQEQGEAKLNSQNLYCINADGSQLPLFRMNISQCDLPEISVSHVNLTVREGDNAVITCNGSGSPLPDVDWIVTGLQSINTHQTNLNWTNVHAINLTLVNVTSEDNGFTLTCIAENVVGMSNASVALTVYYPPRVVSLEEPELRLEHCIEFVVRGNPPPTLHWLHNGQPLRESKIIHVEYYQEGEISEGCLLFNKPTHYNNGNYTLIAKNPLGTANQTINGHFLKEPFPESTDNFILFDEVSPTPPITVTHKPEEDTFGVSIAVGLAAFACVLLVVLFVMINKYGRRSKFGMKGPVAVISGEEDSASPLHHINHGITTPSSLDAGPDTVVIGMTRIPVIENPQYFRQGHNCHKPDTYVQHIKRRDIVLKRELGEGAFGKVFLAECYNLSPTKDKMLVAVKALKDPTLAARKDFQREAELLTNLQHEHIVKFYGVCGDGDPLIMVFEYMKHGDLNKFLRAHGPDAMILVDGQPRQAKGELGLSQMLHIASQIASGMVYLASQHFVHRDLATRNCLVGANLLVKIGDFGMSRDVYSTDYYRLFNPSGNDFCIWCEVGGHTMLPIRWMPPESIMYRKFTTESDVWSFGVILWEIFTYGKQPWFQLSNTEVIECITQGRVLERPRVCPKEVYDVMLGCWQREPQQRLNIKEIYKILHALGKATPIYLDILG

BDNF, K65D, K73D, K95A, R97A (from UniProt P23560 129-247) (ligand)
Bioactivity (mg/mg), MTS mitogenic bioassay (trkB receptor): 1.24 mg/mg

BDNF, P60E, K65D, K73D, K95A (from UniProt P23560 129-247) (ligand)
Bioactivity (mg/mg), MTS mitogenic bioassay (trkB receptor): 0.61 mg/mg

Wild type BDNF (from UniProt P23560 129-247) (ligand)
Bioactivity (mg/mg), MTS mitogenic bioassay (trkB receptor): 0.61 mg/mg

B1: NT-3(1-117)R61A,K64D (ligand)
chain: MYAEHKSHRGEYSVCDSESLWVTDKSSAIDIRGHQVTVLGEIKTGNSPVKQYFYETRCKEAAPVDNGCRGIDDKHWNSQCKTSQTYVRALTSENNKLVGWRWIRIDTSCVCALSRKIG
Percentage of expected activity (%), in vitro mitogenic bioassay [1]: 328%

B2: wild type human NT-3 (r-metHuNT-3) (ligand)
chain: MYAEHKSHRGEYSVCDSESLWVTDKSSAIDIRGHQVTVLGEIKTGNSPVKQYFYETRCKEARPVKNGCRGIDDKHWNSQCKTSQTYVRALTSENNKLVGWRWIRIDTSCVCALSRKIGRT
Percentage of expected activity (%), in vitro mitogenic bioassay [1]: 72%

B3: NT-3(1-119)R61A,K64D (ligand)
chain: MYAEHKSHRGEYSVCDSESLWVTDKSSAIDIRGHQVTVLGEIKTGNSPVKQYFYETRCKEAAPVDNGCRGIDDKHWNSQCKTSQTYVRALTSENNKLVGWRWIRIDTSCVCALSRKIGRT
Percentage of expected activity (%), in vitro mitogenic bioassay [1]: 524%
